This experiment concerns the target HIF1α (hypoxia-inducible factor 1 alpha) (UniProt Q16665). In words: cell-based or functional assay.

“EGL nine (C.elegans) homolog 3 (EGLN3), full length (from UniProt Q9H6Z9 1-239)” returned an HIF1α activity measured in Luciferase units from the HRE-Luc reporter, 293T cells in normoxia, co-transfected with CMV-HIF and CMV-SVFL1 (CMV-HIF with HRE-Luc alone: 20953 Luciferase units) (Luciferase units) of 918.

(Values after patent US20030203372A1, “Analysis method” (priority 2000, published 2003).)
